{
  "source": "paper PMC8745658",
  "origin": "cited, not measured here",
  "molecular_target": "Cytochrome b5 soluble isoform (Homo sapiens) (UniProt P00167)",
  "sequence (P00167 2-98)": "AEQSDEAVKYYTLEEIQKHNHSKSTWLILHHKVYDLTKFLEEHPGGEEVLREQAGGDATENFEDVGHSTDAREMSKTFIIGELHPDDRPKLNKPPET",
  "test": "flavin autofluorescence",
  "data": [
    {"substance": "Cytochrome b5 reductase soluble isoform (from UniProt P00387)", "values": [
      {"measurement": "Kd", "result": 500, "unit": "nM"}
    ]}
  ]
}
